# Data as given in patent US20140087995A1 (published 2014).
# Numbered stars: 1 amine (or outer) side, 2 acyl side, 3 side chain; on linkers, the order of the positions; unused ones are H or OH. Bridge positions count the residues as written; N and C are the ends. Side chains are listed from the residue outwards. Ends that are not written are not given here. * marks the point of attachment. C20 diacid = O=C(O)CCCCCCCCCCCCCCCCCCC(=O)*; γGlu = O=C(O)[C@H](CCC(=O)[*:2])N[*:1]
# T1: human calcitonin receptor (human, UniProt P30988 25-474)
# T1 construct: whole, on cells; also called hCTR; hCT
# T1 sequence (looked up): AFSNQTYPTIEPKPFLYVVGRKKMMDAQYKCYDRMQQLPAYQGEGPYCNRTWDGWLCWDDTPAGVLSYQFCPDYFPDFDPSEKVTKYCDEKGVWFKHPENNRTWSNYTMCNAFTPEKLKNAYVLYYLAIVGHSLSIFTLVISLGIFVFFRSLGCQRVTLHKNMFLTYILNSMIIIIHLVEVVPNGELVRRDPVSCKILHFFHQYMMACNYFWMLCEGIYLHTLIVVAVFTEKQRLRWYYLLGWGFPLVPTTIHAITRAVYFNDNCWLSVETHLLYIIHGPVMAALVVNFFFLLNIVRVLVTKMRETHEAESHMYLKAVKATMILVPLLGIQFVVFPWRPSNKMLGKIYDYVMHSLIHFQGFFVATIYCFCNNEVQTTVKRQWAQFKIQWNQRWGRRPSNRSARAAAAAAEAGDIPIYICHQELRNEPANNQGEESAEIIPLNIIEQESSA
# B1: N^ε1-[(4S)-4-carboxy-4-(19-carboxynonadecanoylamino)butanoyl]-[His14,Arg17,Pro21,Pro27]-h-amylin (peptide)
# peptide: K([γGlu-C20 diacid])CNTATCATQRLAHFLRHSSPNFGAIPSSTNVGSNTY-NH2
# modifications: disulfide 2-7; N-terminus assumed
# SMILES: CC[C@H](C)[C@H](NC(=O)[C@H](C)NC(=O)CNC(=O)[C@H](Cc1ccccc1)NC(=O)[C@H](CC(N)=O)NC(=O)[C@@H]1CCCN1C(=O)[C@H](CO)NC(=O)[C@H](CO)NC(=O)[C@H](Cc1c[nH]cn1)NC(=O)[C@H](CCCNC(=N)N)NC(=O)[C@H](CC(C)C)NC(=O)[C@H](Cc1ccccc1)NC(=O)[C@H](Cc1c[nH]cn1)NC(=O)[C@H](C)NC(=O)[C@H](CC(C)C)NC(=O)[C@H](CCCNC(=N)N)NC(=O)[C@H](CCC(N)=O)NC(=O)[C@@H](NC(=O)[C@H](C)NC(=O)[C@@H]1CSSC[C@H](NC(=O)[C@@H](N)CCCCNC(=O)CC[C@H](NC(=O)CCCCCCCCCCCCCCCCCCC(=O)O)C(=O)O)C(=O)N[C@@H](CC(N)=O)C(=O)N[C@@H]([C@@H](C)O)C(=O)N[C@@H](C)C(=O)N[C@@H]([C@@H](C)O)C(=O)N1)[C@@H](C)O)C(=O)N1CCC[C@H]1C(=O)N[C@@H](CO)C(=O)N[C@@H](CO)C(=O)N[C@H](C(=O)N[C@@H](CC(N)=O)C(=O)N[C@H](C(=O)NCC(=O)N[C@@H](CO)C(=O)N[C@@H](CC(N)=O)C(=O)N[C@H](C(=O)N[C@@H](Cc1ccc(O)cc1)C(N)=O)[C@@H](C)O)C(C)C)[C@@H](C)O
# notes: also called compound 70
# B2: N^ε1-[(4S)-4-carboxy-4-[[(4S)-4-carboxy-4-(19-carboxynonadecanoylamino)butanoyl]amino]butanoyl]-[Asp14,Arg17,Pro21,Pro26,Asp35]-h-amylin (peptide)
# peptide: K([γGlu-γGlu-C20 diacid])CNTATCATQRLADFLRHSSPNFGAPLSSTNVGSDTY-NH2
# modifications: disulfide 2-7; N-terminus assumed
# SMILES: CC(C)C[C@H](NC(=O)[C@H](CCCNC(=N)N)NC(=O)[C@H](CCC(N)=O)NC(=O)[C@@H](NC(=O)[C@H](C)NC(=O)[C@@H]1CSSC[C@H](NC(=O)[C@@H](N)CCCCNC(=O)CC[C@H](NC(=O)CC[C@H](NC(=O)CCCCCCCCCCCCCCCCCCC(=O)O)C(=O)O)C(=O)O)C(=O)N[C@@H](CC(N)=O)C(=O)N[C@@H]([C@@H](C)O)C(=O)N[C@@H](C)C(=O)N[C@@H]([C@@H](C)O)C(=O)N1)[C@@H](C)O)C(=O)N[C@@H](C)C(=O)N[C@@H](CC(=O)O)C(=O)N[C@@H](Cc1ccccc1)C(=O)N[C@@H](CC(C)C)C(=O)N[C@@H](CCCNC(=N)N)C(=O)N[C@@H](Cc1c[nH]cn1)C(=O)N[C@@H](CO)C(=O)N[C@@H](CO)C(=O)N1CCC[C@H]1C(=O)N[C@@H](CC(N)=O)C(=O)N[C@@H](Cc1ccccc1)C(=O)NCC(=O)N[C@@H](C)C(=O)N1CCC[C@H]1C(=O)N[C@@H](CC(C)C)C(=O)N[C@@H](CO)C(=O)N[C@@H](CO)C(=O)N[C@H](C(=O)N[C@@H](CC(N)=O)C(=O)N[C@H](C(=O)NCC(=O)N[C@@H](CO)C(=O)N[C@@H](CC(=O)O)C(=O)N[C@H](C(=O)N[C@@H](Cc1ccc(O)cc1)C(N)=O)[C@@H](C)O)C(C)C)[C@@H](C)O
# notes: also called compound 1
# B3: N^ε1N^ε1-[(4S)-4-carboxy-4-(19-carboxynonadecanoylamino)butanoyl]-[His14,Arg17,Pro21,Pro27,Pro34]-h-amylin (peptide)
# peptide: K([γGlu-C20 diacid])CNTATCATQRLAHFLRHSSPNFGAIPSSTNVGPNTY-NH2
# modifications: disulfide 2-7; N-terminus assumed
# SMILES: CC[C@H](C)[C@H](NC(=O)[C@H](C)NC(=O)CNC(=O)[C@H](Cc1ccccc1)NC(=O)[C@H](CC(N)=O)NC(=O)[C@@H]1CCCN1C(=O)[C@H](CO)NC(=O)[C@H](CO)NC(=O)[C@H](Cc1c[nH]cn1)NC(=O)[C@H](CCCNC(=N)N)NC(=O)[C@H](CC(C)C)NC(=O)[C@H](Cc1ccccc1)NC(=O)[C@H](Cc1c[nH]cn1)NC(=O)[C@H](C)NC(=O)[C@H](CC(C)C)NC(=O)[C@H](CCCNC(=N)N)NC(=O)[C@H](CCC(N)=O)NC(=O)[C@@H](NC(=O)[C@H](C)NC(=O)[C@@H]1CSSC[C@H](NC(=O)[C@@H](N)CCCCNC(=O)CC[C@H](NC(=O)CCCCCCCCCCCCCCCCCCC(=O)O)C(=O)O)C(=O)N[C@@H](CC(N)=O)C(=O)N[C@@H]([C@@H](C)O)C(=O)N[C@@H](C)C(=O)N[C@@H]([C@@H](C)O)C(=O)N1)[C@@H](C)O)C(=O)N1CCC[C@H]1C(=O)N[C@@H](CO)C(=O)N[C@@H](CO)C(=O)N[C@H](C(=O)N[C@@H](CC(N)=O)C(=O)N[C@H](C(=O)NCC(=O)N1CCC[C@H]1C(=O)N[C@@H](CC(N)=O)C(=O)N[C@H](C(=O)N[C@@H](Cc1ccc(O)cc1)C(N)=O)[C@@H](C)O)C(C)C)[C@@H](C)O
# notes: also called compound 67
# B4: N^ε1-[(4S)-4-carboxy-4-[[(4S)-4-carboxy-4-(19-carboxynonadecanoylamino)butanoyl]amino]butanoyl]-[Asp14,Arg17,Pro21,Pro27,Arg35]-h-amylin (peptide)
# peptide: K([γGlu-γGlu-C20 diacid])CNTATCATQRLADFLRHSSPNFGAIPSSTNVGSRTY-NH2
# modifications: disulfide 2-7; N-terminus assumed
# SMILES: CC[C@H](C)[C@H](NC(=O)[C@H](C)NC(=O)CNC(=O)[C@H](Cc1ccccc1)NC(=O)[C@H](CC(N)=O)NC(=O)[C@@H]1CCCN1C(=O)[C@H](CO)NC(=O)[C@H](CO)NC(=O)[C@H](Cc1c[nH]cn1)NC(=O)[C@H](CCCNC(=N)N)NC(=O)[C@H](CC(C)C)NC(=O)[C@H](Cc1ccccc1)NC(=O)[C@H](CC(=O)O)NC(=O)[C@H](C)NC(=O)[C@H](CC(C)C)NC(=O)[C@H](CCCNC(=N)N)NC(=O)[C@H](CCC(N)=O)NC(=O)[C@@H](NC(=O)[C@H](C)NC(=O)[C@@H]1CSSC[C@H](NC(=O)[C@@H](N)CCCCNC(=O)CC[C@H](NC(=O)CC[C@H](NC(=O)CCCCCCCCCCCCCCCCCCC(=O)O)C(=O)O)C(=O)O)C(=O)N[C@@H](CC(N)=O)C(=O)N[C@@H]([C@@H](C)O)C(=O)N[C@@H](C)C(=O)N[C@@H]([C@@H](C)O)C(=O)N1)[C@@H](C)O)C(=O)N1CCC[C@H]1C(=O)N[C@@H](CO)C(=O)N[C@@H](CO)C(=O)N[C@H](C(=O)N[C@@H](CC(N)=O)C(=O)N[C@H](C(=O)NCC(=O)N[C@@H](CO)C(=O)N[C@@H](CCCNC(=N)N)C(=O)N[C@H](C(=O)N[C@@H](Cc1ccc(O)cc1)C(N)=O)[C@@H](C)O)C(C)C)[C@@H](C)O
# notes: also called compound 52
# B5: N^ε1-[(4S)-4-carboxy-4-[[(4S)-4-carboxy-4-(19-carboxynonadecanoylamino)butanoyl]amino]butanoyl]-[Asp14,Arg17,Pro21,Pro27,Asp35]-h-amylin (peptide)
# peptide: K([γGlu-γGlu-C20 diacid])CNTATCATQRLADFLRHSSPNFGAIPSSTNVGSDTY-NH2
# modifications: disulfide 2-7; N-terminus assumed
# SMILES: CC[C@H](C)[C@H](NC(=O)[C@H](C)NC(=O)CNC(=O)[C@H](Cc1ccccc1)NC(=O)[C@H](CC(N)=O)NC(=O)[C@@H]1CCCN1C(=O)[C@H](CO)NC(=O)[C@H](CO)NC(=O)[C@H](Cc1c[nH]cn1)NC(=O)[C@H](CCCNC(=N)N)NC(=O)[C@H](CC(C)C)NC(=O)[C@H](Cc1ccccc1)NC(=O)[C@H](CC(=O)O)NC(=O)[C@H](C)NC(=O)[C@H](CC(C)C)NC(=O)[C@H](CCCNC(=N)N)NC(=O)[C@H](CCC(N)=O)NC(=O)[C@@H](NC(=O)[C@H](C)NC(=O)[C@@H]1CSSC[C@H](NC(=O)[C@@H](N)CCCCNC(=O)CC[C@H](NC(=O)CC[C@H](NC(=O)CCCCCCCCCCCCCCCCCCC(=O)O)C(=O)O)C(=O)O)C(=O)N[C@@H](CC(N)=O)C(=O)N[C@@H]([C@@H](C)O)C(=O)N[C@@H](C)C(=O)N[C@@H]([C@@H](C)O)C(=O)N1)[C@@H](C)O)C(=O)N1CCC[C@H]1C(=O)N[C@@H](CO)C(=O)N[C@@H](CO)C(=O)N[C@H](C(=O)N[C@@H](CC(N)=O)C(=O)N[C@H](C(=O)NCC(=O)N[C@@H](CO)C(=O)N[C@@H](CC(=O)O)C(=O)N[C@H](C(=O)N[C@@H](Cc1ccc(O)cc1)C(N)=O)[C@@H](C)O)C(C)C)[C@@H](C)O
# notes: also called compound 2
# B6: N^α1-[(4S)-4-carboxy-4-(19-carboxynonadecanoylamino)butanoyl]-[Glu14,Arg17,Pro21,Pro25,Pro28,Pro29]-h-amylin (peptide)
# peptide: {C20 diacid-γGlu}-KCNTATCATQRLAEFLRHSSPNFGPILPPTNVGSNTY-NH2
# modifications: disulfide 2-7
# SMILES: CC[C@H](C)[C@H](NC(=O)[C@@H]1CCCN1C(=O)CNC(=O)[C@H](Cc1ccccc1)NC(=O)[C@H](CC(N)=O)NC(=O)[C@@H]1CCCN1C(=O)[C@H](CO)NC(=O)[C@H](CO)NC(=O)[C@H](Cc1c[nH]cn1)NC(=O)[C@H](CCCNC(=N)N)NC(=O)[C@H](CC(C)C)NC(=O)[C@H](Cc1ccccc1)NC(=O)[C@H](CCC(=O)O)NC(=O)[C@H](C)NC(=O)[C@H](CC(C)C)NC(=O)[C@H](CCCNC(=N)N)NC(=O)[C@H](CCC(N)=O)NC(=O)[C@@H](NC(=O)[C@H](C)NC(=O)[C@@H]1CSSC[C@H](NC(=O)[C@H](CCCCN)NC(=O)CC[C@H](NC(=O)CCCCCCCCCCCCCCCCCCC(=O)O)C(=O)O)C(=O)N[C@@H](CC(N)=O)C(=O)N[C@@H]([C@@H](C)O)C(=O)N[C@@H](C)C(=O)N[C@@H]([C@@H](C)O)C(=O)N1)[C@@H](C)O)C(=O)N[C@@H](CC(C)C)C(=O)N1CCC[C@H]1C(=O)N1CCC[C@H]1C(=O)N[C@H](C(=O)N[C@@H](CC(N)=O)C(=O)N[C@H](C(=O)NCC(=O)N[C@@H](CO)C(=O)N[C@@H](CC(N)=O)C(=O)N[C@H](C(=O)N[C@@H](Cc1ccc(O)cc1)C(N)=O)[C@@H](C)O)C(C)C)[C@@H](C)O
# notes: also called compound 6
# B7: N^α1-[2-[2-[2-[[2-[2-[2-[[(4S)-4-carboxy-4-(19-carboxynonadecanoylamino)butanoyl]amino]ethoxy]ethoxy]acetyl]amino]ethoxy]ethoxy]acetyl]-[Arg17,Pro21,Pro27]-h-am … (peptide)
# peptide: KCNTATCATQRLANFLRHSSPNFGAIPSSTNVGSNTY
# modifications: C20 diacid-gGlu-2xOEG on alpha amino group of N-terminal Lys 1; disulfide Cys2-Cys7; C-terminal amide (as human amylin)
# notes: also called compound 24
# Biological target: T1, human calcitonin receptor
# Test: SPA competition with 125I-calcitonin, membranes of BHK hCTR cells (Assay VII)
# Summary of the method: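 BHK hCTR membranes 35 ng/μL + SPA beads 0.05 mg/well; buffer 50 mM Hepes pH 7.4, 1 mM CaCl2, 5 mM MgCl₂, 0.1% OA, 0.02% Tween20. 120 min, 25° C., shaking. Scintillation count; IC50 by one-site binding competition.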
row,IC50 [nM],Binder
1,10.3,B1
2,32.5,B2
3,4.63,B3
4,56.9,B4
5,19.5,B5
6,19.9,B6
7,102,B7
